Consider four molecules from paper PMC4105210 (Nature communications, 2014).

The target in series [1] is T1, HSV-1 UL31Δ50 (residues 51-306) (HSV-1 strain F, UniProt P10215 51-306).
T1 sequence: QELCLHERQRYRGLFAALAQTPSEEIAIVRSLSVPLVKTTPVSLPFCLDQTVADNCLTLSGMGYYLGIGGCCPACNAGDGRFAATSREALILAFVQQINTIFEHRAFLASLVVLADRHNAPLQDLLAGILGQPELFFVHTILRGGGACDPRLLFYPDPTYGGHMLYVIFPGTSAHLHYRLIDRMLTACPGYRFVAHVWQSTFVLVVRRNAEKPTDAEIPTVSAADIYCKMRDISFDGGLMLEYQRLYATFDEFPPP
Nature of the series: SEC. On the technique in general: Size exclusion chromatography separates by hydrodynamic size, large species first.

Series [2] addresses T2, HSV-1 UL31, full length (residues 1-306) (HSV-1 strain F, UniProt P10215 1-306).
T2 sequence: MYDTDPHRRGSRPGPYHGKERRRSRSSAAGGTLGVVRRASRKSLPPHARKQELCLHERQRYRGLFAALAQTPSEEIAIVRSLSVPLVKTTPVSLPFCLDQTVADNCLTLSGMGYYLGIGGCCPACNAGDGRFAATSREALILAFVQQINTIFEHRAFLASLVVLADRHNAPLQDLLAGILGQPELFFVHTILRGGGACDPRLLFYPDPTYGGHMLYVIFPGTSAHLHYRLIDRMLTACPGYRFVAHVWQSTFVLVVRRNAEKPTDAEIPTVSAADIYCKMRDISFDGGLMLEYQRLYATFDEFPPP
Kind of series: SEC.

Series [3] addresses T2, HSV-1 UL31, full length (residues 1-306). Kind of series: co-purification.
The series “cryo-EM structure” deals with the molecule itself. Kind of series: cryo-EM structure.
The series “cross-linking” concerns the molecule itself. Nature of the series: cross-linking.

Substitutions are numbered along the chain they refer to. Numbers in names are those of the source.

B1: HSV-1 UL34(1-185) (domain or fragment)
chain: MAGLGKPYTGHPGDAFEGLVQRIRLIVPSTLRGGDGEAGPYSPSSLPSRCAFQFHGHDGSDESFPIEYVLRLMNDWAEVPCNPYLRIQNTGVSVLFQGFFHRPHNAPGGAITPERTNVILGSTETTGLSLGDLDTIKGRLGLDARPMMASMWISCFVRMPRVQLAFRFMGPEDAGRTRRILCRAA
B1: the binding result in series [1] and in series [2] was “binds” each time.

B2: HSV-1 UL34(1-220) (domain or fragment)
chain: MAGLGKPYTGHPGDAFEGLVQRIRLIVPSTLRGGDGEAGPYSPSSLPSRCAFQFHGHDGSDESFPIEYVLRLMNDWAEVPCNPYLRIQNTGVSVLFQGFFHRPHNAPGGAITPERTNVILGSTETTGLSLGDLDTIKGRLGLDARPMMASMWISCFVRMPRVQLAFRFMGPEDAGRTRRILCRAAEQAITRRRRTRRSREAYGAEAGLGVAGTGFRARGD
For B2, the binding result in series [3] and in series [1] was “binds” throughout.

B3: HSV-1 nuclear egress complex NEC220 (UL31 1-306 with UL34 1-220) (complex)
chain 1: T2 sequence
chain 2: B2 chain
Take B3: the stoichiometry N (as a rule, a count of units in the complex or per binding partner) in the series “cryo-EM structure” stood at 6.

B4: HSV-1 nuclear egress complex NEC220-DN (UL31 1-306 with UL34 1-220 D35A/E37A) (complex)
chain 1: T2 sequence
chain 2: B2 chain with D35A, E37A
As to B4, the binding result in the series “cross-linking” is on record as “binds”.
